The supplement of paper PMC10266784

B1: library; numbered along this chain (parent)
chain: MAAAAAAAAEQQSSNGPVKKSMREKAVERRSVNKEHNSNFKAGYIPIDEDRLHKTGLRGRKGNLAICVIILLFILAVINLIITLVIWAVIRIGPNGCDSMEFHESGLLRFKQVSDMGVIHPLYKSTVGGRRNENLVITGNNQPIVFQQGTTKLSVENNKTSITSDIGMQFFDPRTQNILFSTDYETHEFHLPSGVKSLNVQKASTERITSNATSDLNIKVDGRAIVRGNEGVFIMGKTIEFHMGGNMELKAENSIILNGSVMVSTTRLPSSSSGDQLGSGDWVRYKLCMCADGTLFKVQVTSQNMGCQISDNPCGNTH

Variants of: B1
Test: SGCB cell-surface expression functional score (HA stain, bin4 vs bin1, normalised to synonymous) (log10 ratio); higher = more cell-surface SGCB (functional)
Description: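 Deep mutational scan of full-length human SGCB (YFP-SGCB-HA, NNN codon sublibraries A-F) delivered by lentivirus at low MOI into ADG-HEK293 cells stably expressing SGCA, SGCD and SGCG. YFP-positive cells were stained for surface HA on unpermeabilized cells and FACS-sorted into bins. The functional score is log10(frequency in high bin 4 / frequency in low bin 1), normalised per chunk so that synonymous variants have mean 0 and SD 0.5. Scores are the median over codons and over duplicate biological replicates; scores below -0.5 are called non-functional. Scale: negative means deleterious.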

**Q.** With MAAAAAAAAEQRSSNGPVKKSMREKAVERRSVNKEHNSNFKAGYIPIDEDRLHKTGLRGRKGNLAICVIILLFILAVINLIITLVIWAVIRIGPNGCDSMEFHESGLLRFKQVSDMGVIHPLYKSTVGGRRNENLVITGNNQPIVFQQGTTKLSVENNKTSITSDIGMQFFDPRTQNILFSTDYETHEFHLPSGVKSLNVQKASTERITSNATSDLNIKVDGRAIVRGNEGVFIMGKTIEFHMGGNMELKAENSIILNGSVMVSTTRLPSSSSGDQLGSGDWVRYKLCMCADGTLFKVQVTSQNMGCQISDNPCGNTH [Q12R] as the variant, how does the “SGCB cell-surface expression functional score (log10)” value read?
**A.** 0.29

**Q.** For MAAAAAAAAEQVSSNGPVKKSMREKAVERRSVNKEHNSNFKAGYIPIDEDRLHKTGLRGRKGNLAICVIILLFILAVINLIITLVIWAVIRIGPNGCDSMEFHESGLLRFKQVSDMGVIHPLYKSTVGGRRNENLVITGNNQPIVFQQGTTKLSVENNKTSITSDIGMQFFDPRTQNILFSTDYETHEFHLPSGVKSLNVQKASTERITSNATSDLNIKVDGRAIVRGNEGVFIMGKTIEFHMGGNMELKAENSIILNGSVMVSTTRLPSSSSGDQLGSGDWVRYKLCMCADGTLFKVQVTSQNMGCQISDNPCGNTH [Q12V], which “SGCB cell-surface expression functional score (log10)” value is on record?
**A.** -0.06

**Q.** With MAAAAAAAAEQTSSNGPVKKSMREKAVERRSVNKEHNSNFKAGYIPIDEDRLHKTGLRGRKGNLAICVIILLFILAVINLIITLVIWAVIRIGPNGCDSMEFHESGLLRFKQVSDMGVIHPLYKSTVGGRRNENLVITGNNQPIVFQQGTTKLSVENNKTSITSDIGMQFFDPRTQNILFSTDYETHEFHLPSGVKSLNVQKASTERITSNATSDLNIKVDGRAIVRGNEGVFIMGKTIEFHMGGNMELKAENSIILNGSVMVSTTRLPSSSSGDQLGSGDWVRYKLCMCADGTLFKVQVTSQNMGCQISDNPCGNTH [Q12T] as the variant, how does the “SGCB cell-surface expression functional score (log10)” value read?
**A.** -0.35

**Q.** For MAAAAAAAAEQPSSNGPVKKSMREKAVERRSVNKEHNSNFKAGYIPIDEDRLHKTGLRGRKGNLAICVIILLFILAVINLIITLVIWAVIRIGPNGCDSMEFHESGLLRFKQVSDMGVIHPLYKSTVGGRRNENLVITGNNQPIVFQQGTTKLSVENNKTSITSDIGMQFFDPRTQNILFSTDYETHEFHLPSGVKSLNVQKASTERITSNATSDLNIKVDGRAIVRGNEGVFIMGKTIEFHMGGNMELKAENSIILNGSVMVSTTRLPSSSSGDQLGSGDWVRYKLCMCADGTLFKVQVTSQNMGCQISDNPCGNTH [Q12P], which “SGCB cell-surface expression functional score (log10)” value is on record?
**A.** 0.06

**Q.** For MAAAAAAAAEQQCSNGPVKKSMREKAVERRSVNKEHNSNFKAGYIPIDEDRLHKTGLRGRKGNLAICVIILLFILAVINLIITLVIWAVIRIGPNGCDSMEFHESGLLRFKQVSDMGVIHPLYKSTVGGRRNENLVITGNNQPIVFQQGTTKLSVENNKTSITSDIGMQFFDPRTQNILFSTDYETHEFHLPSGVKSLNVQKASTERITSNATSDLNIKVDGRAIVRGNEGVFIMGKTIEFHMGGNMELKAENSIILNGSVMVSTTRLPSSSSGDQLGSGDWVRYKLCMCADGTLFKVQVTSQNMGCQISDNPCGNTH [S13C], which “SGCB cell-surface expression functional score (log10)” value is on record?
**A.** -0.36

**Q.** With MAAAAAAAAEQQESNGPVKKSMREKAVERRSVNKEHNSNFKAGYIPIDEDRLHKTGLRGRKGNLAICVIILLFILAVINLIITLVIWAVIRIGPNGCDSMEFHESGLLRFKQVSDMGVIHPLYKSTVGGRRNENLVITGNNQPIVFQQGTTKLSVENNKTSITSDIGMQFFDPRTQNILFSTDYETHEFHLPSGVKSLNVQKASTERITSNATSDLNIKVDGRAIVRGNEGVFIMGKTIEFHMGGNMELKAENSIILNGSVMVSTTRLPSSSSGDQLGSGDWVRYKLCMCADGTLFKVQVTSQNMGCQISDNPCGNTH [S13E] as the variant, how does the “SGCB cell-surface expression functional score (log10)” value read?
**A.** 0.25

**Q.** Which “SGCB cell-surface expression functional score (log10)” value does the source give for MAAAAAAAAEQQFSNGPVKKSMREKAVERRSVNKEHNSNFKAGYIPIDEDRLHKTGLRGRKGNLAICVIILLFILAVINLIITLVIWAVIRIGPNGCDSMEFHESGLLRFKQVSDMGVIHPLYKSTVGGRRNENLVITGNNQPIVFQQGTTKLSVENNKTSITSDIGMQFFDPRTQNILFSTDYETHEFHLPSGVKSLNVQKASTERITSNATSDLNIKVDGRAIVRGNEGVFIMGKTIEFHMGGNMELKAENSIILNGSVMVSTTRLPSSSSGDQLGSGDWVRYKLCMCADGTLFKVQVTSQNMGCQISDNPCGNTH [S13F] here?
**A.** -0.45

**Q.** With MAAAAAAAAEQQASNGPVKKSMREKAVERRSVNKEHNSNFKAGYIPIDEDRLHKTGLRGRKGNLAICVIILLFILAVINLIITLVIWAVIRIGPNGCDSMEFHESGLLRFKQVSDMGVIHPLYKSTVGGRRNENLVITGNNQPIVFQQGTTKLSVENNKTSITSDIGMQFFDPRTQNILFSTDYETHEFHLPSGVKSLNVQKASTERITSNATSDLNIKVDGRAIVRGNEGVFIMGKTIEFHMGGNMELKAENSIILNGSVMVSTTRLPSSSSGDQLGSGDWVRYKLCMCADGTLFKVQVTSQNMGCQISDNPCGNTH [S13A] as the variant, how does the “SGCB cell-surface expression functional score (log10)” value read?
**A.** 0.2

**Q.** For MAAAAAAAAEQQGSNGPVKKSMREKAVERRSVNKEHNSNFKAGYIPIDEDRLHKTGLRGRKGNLAICVIILLFILAVINLIITLVIWAVIRIGPNGCDSMEFHESGLLRFKQVSDMGVIHPLYKSTVGGRRNENLVITGNNQPIVFQQGTTKLSVENNKTSITSDIGMQFFDPRTQNILFSTDYETHEFHLPSGVKSLNVQKASTERITSNATSDLNIKVDGRAIVRGNEGVFIMGKTIEFHMGGNMELKAENSIILNGSVMVSTTRLPSSSSGDQLGSGDWVRYKLCMCADGTLFKVQVTSQNMGCQISDNPCGNTH [S13G], which “SGCB cell-surface expression functional score (log10)” value is on record?
**A.** -0.08

**Q.** For MAAAAAAAAEQQDSNGPVKKSMREKAVERRSVNKEHNSNFKAGYIPIDEDRLHKTGLRGRKGNLAICVIILLFILAVINLIITLVIWAVIRIGPNGCDSMEFHESGLLRFKQVSDMGVIHPLYKSTVGGRRNENLVITGNNQPIVFQQGTTKLSVENNKTSITSDIGMQFFDPRTQNILFSTDYETHEFHLPSGVKSLNVQKASTERITSNATSDLNIKVDGRAIVRGNEGVFIMGKTIEFHMGGNMELKAENSIILNGSVMVSTTRLPSSSSGDQLGSGDWVRYKLCMCADGTLFKVQVTSQNMGCQISDNPCGNTH [S13D], which “SGCB cell-surface expression functional score (log10)” value is on record?
**A.** 0.05
